# Source: the DeepSol protein solubility set
# Experiment: soluble on expression in E. coli; label from the status in PepcDB or PDB records
row,Sequence,soluble on expression in E. coli
1,MMQEETFYSVRMRASMNGSHEDGGKHISGGERLIPFHEMKHTVNALLEKGLSHSRGKPDFMQIQFEEVHESIKTIQPLPVHTNEVSCPEEGQKLARLLLEKEGVSRDVIEKAYEQIPEWSDVRGAVLFDIHTGKRMDQTKEKGVRVSRMDWPDANFEKWALHSHVPAHSRIKEALALASKVSRHPAVVAELCWSDDPDYITGYVAGKKMGYQRITAMKEYGTEEGCRVFFIDGSNDVNTYIHDLEKQPILIEWEEDHDS,not soluble
2,MGSDKIHHHHHHMTTTNGIDGSYYYENRPKEQSNSGILGKDDFLRILIAQLQYQDPLNPMDDREFIAQMAQFSSLEQMTNMNSAIQQFVKQQTSQTLVQHSELIGKRVTWKRIIDIDEYRQKEELVENTVTSVRLETNGNVSIQLDSGRWISADQLVQVSGKTNHQEEAEGDVGDNAPDEQEG,not soluble
3,MTHILFDSRRFLQLGAFASLSTALAGAARYVTSTSNNEPADNTPLTIGYVPIAGSAPIAIADALGLFKKHGVNVTLKKYSGWSDLWTAYATEQLDVAHMLSPMTVAINAGVTNASRPTELSFTQNTNGQAITLASKHYGSVNSAADLKGMVLGIPFEYSVHALLLRDYLVSNAVDPIADLELRLLRPADMVAQLTVEGIDGFIGPGPFNERAISNGSGRIWLLTKQLWDKHPCCAVAMAKEWKAEHPTAAQGVLNALEEASAILSNPAQFDSSARTLSQEKYLNQPATLLDGPS,not soluble
4,MSLKLHHLNDSRSFRILWLLEEIGQPYEIIRYQRDKETHLAPETLKDIHPLGKSPVIELDGKIIAESGSITEVLIKEFAPHLAPNEKSPEYIDYLQWIHFSESSAMLPLLLKIFNEFETRSGTDLKFLKNYAEIEFNKVFSYLNNHLNNKKFLVEDRLTGADFMLGFVVKGALNLLKSSGAFPHIESYITNIENQISYKRALDIDANEGHHHHHH,soluble
5,GTIPKPTLWAEPDSVITQGSPVTLSCQGSLEAQEYRLYREKKSASWITRIRPELVKNGQFHIPSITWEHTGRYGCQYYSRARWSELSDPLVLVMTGAYPKPTLSAQPSPVVTSGGRVTLQCESQVAFGGFILCKEGEDEHPQCLNSQPHARGSSRAIFSVGPVSPNRRWSHRCYGYDLNSPYVWSSPSDLLELLVPG,soluble
6,MRKLVVGITIASLMGCSMGHRDPVEVKQALNESINQANSRALEEIPSSVEADLMPNLDSNVSSDNGTSKRFRIQANAVEARSFFASLVKGTEYSVAIHPAVQGNITVNLSDVTLDEVLSVVQNMYGYDVMKSGKVIQVYPAGMRTVTIPVDYLQFKRSGRSLTSIVTGSVTSAGTSNSGGSSDSSDSSDSNNSNNGNDSSTTSTGGTRIETITESDFWPMLQQAVANLIGSGKGQSVVVTPQAGVITVRAFPDDIREVREFLGVSQERMQRQVILEAKILEVTLSDGYQQGINWSNLSASIGNSGSIIVNRPASALPPLDAIGTLLGGQTNVTISDGNFEAVLNFMSTQGDLNVLSSPRITAANNQKSVIKVGTDQYFVTELSSNAGNGENSNAVPEVELTPFFSGISLDVTPQIDNKGNVFLHVHPAVIEVTEEVKQLNLGGDFQNIQLPLAKSSIRESDSVIRAKDGDVVVIGGLMKQQNVEQVSKVPFLGDVPALGHLFRNTSNVTQKTELVILLKPTVVGVNSWQKELERSRDLLQEWFPDAQLEHHHHHH,not soluble
7,STPSIVIASAARTAVGSFNGAFANTPAHELGATVISAVLERAGVAAGEVNEVILGQVLPAGEGQNPARQAAMKAGVPQEATAWGMNQLCGSGLRAVALGMQQIATGDASIIVAGGMESMSMAPHCAHLRGGVKMGDFKMIDTMIKDGLTDAFYGYHMGTTAENVAKQWQLSRDEQDAFAVASQNKAEAAQKDGRFKDEIVPFIVKGRKGDITVDADEYIRHGATLDSMAKLRPAFDKEGTVTAGNASGLNDGAAAALLMSEAEASRRGIQPLGRIVSWATVGVDPKVMGTGPIPASRKALERAGWKIGDLDLVEAAEAFAAQACAVNKDLGWDPSIVNVNGGAIAIGHPIGASGARILNTLLFEMKRRGARKGLATLCIGGGMGVAMCIESL,soluble
8,QNDLMIQSQVKFYTILFSARRATPELEIPEGSFYNGIRGYNLFVAKKDRRTGMLHDMMIYDHSQGFADARIIVADSGKLKMDEGKTFLTLMLHSGETFQNLRSQQTESNAPTPYMRERFRTKEIVIPFDANFSLMDEGAMRGEYVGKNLIQLQRFIDTVTLRVDSASFRNANNLYIQTYNAR,not soluble
9,MGSDKIHHHHHHMINPAHFDLQSLRIFLQVAQSGSLTKAAEKFHITLSALSKRIAELERTVDCALFIRMPRGLTLTPAGKELVNLAGNVLSNVERMASEMNDYAVGVRGHVHMWANTSAIIQFLPQDLASFLPTRPLIRINLEEKLSKTVVTALAMGEADIGIFVDNVGSQGVEKIPYRKDKLVVLVPPQHPLSALSDVSFNDTLGYDYVGLNSGSSLLKQLKDASDELGRVLRLRVQVSSFDGICRMIEAGLGISVLPEGAIRPEVLGTGLRAINLTDEWASRQLWLGVKSGAILQPEVTNLLTHLRQCGA,not soluble
10,MHQNNGDYRVRGSRPSRSSEHAGPSLHCKKPEGSIRDTLRLSGSFKIYKEPMPELVCDIHLEKLAENIQKYSKIEERKYRENDMHVNDDSHSSDSRPTSDNEVSSSSDRNNDEPSVRRKRKSVENMCHEREHHGDHLQMQVASVIASNLGPMVEIVEKKLLQHKNAEKLLNDGREVFIKTLEEHNQKKEKVERKAKLVAIPPMKARNRRSSRNSLVYIDGPSTSESHSSMVQQVPIIDNIPEVLENETAVCSISSEADHNSRGIKDNQEFAIEISGEVSRTDDICDDFAVFLKKCTVLLTKFIDSYYDFRSTMKLKPEDAIEHWSAERLTKEEHAARVTRFDVAIARATRVQYNIDIKLLTKQSFVFDDDREAAINKRLARIERFVNEQHEEINWFCFSNFSLMDIGETKDRYCLGDFYDKAISMIPKVKDVPSVVQLAKECKMWSAFERILKQYNFEPLKVFEELQKMLEKDYFLPKGKIFCQFLLNVAQLFSYDVVKNEWSCIKQIDGTLFSGVPFDRDGNLLPTSQNSPTECSS,not soluble
11,MAHHHHHHMEINISNITNSSNNKKERVNIHSHIKGLGVNTNIYLHENEISLSDEKYSMFFDNSCGLVGQFKAREASLFLVDLIKQKKLAGKCILLAGPSGSGKSALAIGISREINRKMPFVFLSGSEVYSNEIKKTEVILEAFRKSIHIKIKEEKLVYEGEVVDMVVEENECLYSLNKAKQINAIIITLKSVKGSKTLRLAPKIHEQIAREKIKIGDVIYIETNTGHVKRLGRCNDYAKEYDIEFDEYVSLPKGEVHKKKEVVQQISLHDIDLANANPTVGEDLASVLNSYLRPKKTEITEKLRVEINKTVNKFLESGLAEIIPGVLYIDEAHMLDIECFSYLNRAIESPLAPILIMATNRGICTVKGTDNIEPHGIPVDLLDRLIIIKTFPYTLKEIVQILALRAQTEKINITEEGMNYLAKIGIQSSLRFAMLLLEPSRILATLEGNTIIDIKHIEQADELFMDAKTSAHRVVDQSNKFVN,not soluble
12,MGSDKIHHHHHHMSRFVGTETEYGIATPSNTMLSPIVTSTHAVVAFSLGERCASQARWDFSEESPLRDLRGFDLRRYRTVPVVDPHALGVANSVLINGGRFYVDHAHPEYSSPETSSAFQAMLYDAAGDVVMNRAVELVAENSQRKHSVLEHHDPCPPLKIYKNNVDGKGASYGSHENYLYNRETPFEEISSGLTPFFITRQVIIGAGRVGIGQYGEKSGFQISQRADYIEQEISLETTLNRGIINTRDEPHADSEHFGRLHVIIGDANMSQTSNFLKIGMTTLVLDAIEAGVDFSDLAVANPVAEVSAISHDLTLTHKIVLRDGRTLTALELLDEYRKRVSPQSDDDLDVLKEWSEILVLLQKGPFYAADRLDWCAKWQLISSFIKRGVSIDDPKIQLIDLQYADIDPAKSLYHALVRKGRMRTLVSTEQINNAAWSPPKGSRAYLRGSLISRFPDSVVQASWDSITLQTSRDQATKIKMPVVQSLSAEAIATIDTASSVKEVATILSQWLPVTTISLT,not soluble
13,FPEKVKSLTLIDSFGFICAPEEQMTDQLRRGLLSRMKSANTTRSFTEETAVKARLHVSDLTVEHAKLIVKRSLIEIEPKSMDTVGVDSASILYRWRSDPRLRSVSPYRLSLKQGQQLFSDIKCPLQLIYGDKGMKMVVTGLKNFSSGVNSLQTTKLSGGHHVHMEKAEELLPILHHFFSEI,not soluble
14,MGSDKIHHHHHHMKKPFLHSESAADVGMEIQQSYDRLLETTRKWIDILHFDPLLETGLTPRDIVWRKNKSRLYRYVNHKGYKHRTPILMLYALINKAYILDLRPGMSLVEYLVDQGFDVYLLDWGEFDWEDRDLSFSQLIVDYISRAVYKVCQYSNVNELSILGYCMGGTMATMYASLYPQPRIKNMIYVAAPIDFEDAGLSSIWLKASVFDVDKVTDTFSLIPKEFVDLGLKMLNPVNNFVATYTRLWKAIDEGVSIEAWKALNKWVDDNINFPGKAYREWVKYLYQENALVKDEFIINGRKVVLSNIDAALLVLTGKTDHIVLPQQSTPILELSSSQDKTNLQYPVGHGGLVFGSRARNEVYPTIAEWLAQRS,not soluble
15,MSQLPTDFASLIKRFQFVSVLDSNPQTKVMSLLGTIDNKDAIITAEKTHFLFDETVRRPSQDGRSTPVLYNCENEYSCINGIQELKEITSNDIYYWGLSVIKQDMESNPTAKLNLIWPATPIHIKKYEQQNFHLVRETPEMYKRIVQPYIEEMCNNGRLKWVNNILYEGAESERVVYKDFSEENKDDGFLILPDMKWDGMNLDSLYLVAIVYRTDIKTIRDLRYSDRQWLINLNNKIRSIVPGCYNYAVHPDELRILVHYQPSYYHFHIHIVNIKHPGLGNSIAAGKAILLEDIIEMLNYLGPEGYMNKTITYAIGENHDLWKRGLEEELTKQLERDGIPKIPKIVNGFK,soluble
16,MSERESLSGADNAWRRMGTPTNLMTITGVMMFDERMTYEDLCNRLEERLLRFERFQQRIGGRKRRFRQPYWETVDGFDVEPHVYHISLPEPQDKATFEAFVGKLMSRPLDESRPLWEAYLVDGAGPGEGNAVAFRLNHSIGDGFALLYVLLGLVDNPGDIELPSGMVSAPDDIGDDADSGADGGNGSDESDVASGDGQPADTDSKSDGERGSSGLPSPVSAAGTAATGVATGYDLLFGDDDPDTSLRGELGQTKRAAWTDEIPLEQVRTVCEAQPHRATINDVLLAALAGALRRLLEDRGEPVDGMELHGTVPVNLKPMAERDGSLGNNFGLVFLPLPVGTEPLQERISIIHEWMDGKRAGIQAFLMYALLTIGGHVPEYVQKKVMTLFEDRATGVVTNVPGPTDAIQFAGREITDMIFWVPQANEQGIGISIFSYDGNVRVGVAADENLLGAPGELAAAFEAEMEALLEDAELEHHHHHH,soluble
17,GPGSMVFFGVGATGGTGCGPKQACFPWLENSSATRCQRGGRINLRFMLDLPQGDTEAPSTNQKRAVYAFCPIVDELQVFTLKGAGRVSSLLQKTSSSGQASITPNPAPRYLSVFGFGRSGQKEYPERDVSNSTVVIAMRDIGLCNSPDSVAIVNMVILTIGMHDGKFNYISSDADTKEPDDSESGIPSGNSSGTGSPMESVQPAMVGFRPTCDESDHCIFSPTSPCVGPIRGMKNCGACYNTPDDIEGASIQVWTSYQGTDLERQPLLSGGMDPMGFRKFAGGKFVGNIKYAVSKIENTASGMMPGDETNSTP,not soluble
